Experimental findings from article PMC8316464, “Structures of the ApoL1 and ApoL2 N-terminal domains reveal a non-classical four-helix bundle motif” (Communications Biology, 2021) are described below.

Assay [1] deals with T1, human untagged ApoL2 expressed in COS7 cells (Homo sapiens, UniProt Q9BQE5).
T1 construct: Apolipoprotein L2, human, untagged; source: COS7, transiently transfected; in lysate (immunoprecipitation) or in fixed, permeabilized cells (immunofluorescence)
The experiment in a line: immunoprecipitation; 20 µg antibody pre-immobilised on Dynabeads Protein G, incubated 20 min at RT with M-PER lysates of cells expressing ApoL1-6 (35 µg total protein for ApoL1-3, 500 µg for ApoL4-6); four washes PBS/0.02% Tween-20; blot with anti-ApoL1/2 or anti-Myc. As to conditions: one partner purified.

For assay [2], the target named is T2, ApoL3-Myc-Flag (Homo sapiens, UniProt O95236).
T2 construct: Apolipoprotein L3, human; The homology model (not this construct) used isoform 1, NP_663615.1; source: COS7, transiently transfected; in lysate (immunoprecipitation) or in fixed, permeabilized cells (immunofluorescence); not shown: Myc, C-terminal, kept; FLAG, C-terminal, kept
The assay is described as above. The following applies: one partner purified.

The target in assay [3] is T3, full-length ApoL1 with N-terminal flag-tag (human, UniProt O14791-1).
T3 construct: also called Apolipoprotein L1; not shown: FLAG, N-terminal, kept
Kind of assay: SPR; Biacore T200; anti-ApoL1 antibodies captured (~250 RU) by anti-murine Fc antibody on a CM5 chip; ApoL1 0.8–500 nM injected in HBS-P (10 mM HEPES pH 7.4, 150 mM NaCl, 0.005% P20) at 37 °C, 100 µl/min; 1:1 Langmuir model; KD = koff/kon. As to conditions: both partners purified.

Assay [4] concerns the target T4, ApoL4-Myc (Homo sapiens, UniProt Q9BPW4).
T4 construct: Apolipoprotein L4, human; The homology model (not this construct) used isoform 2, NP_663693; source: COS7, transiently transfected; in lysate (immunoprecipitation) or in fixed, permeabilized cells (immunofluorescence); not shown: Myc, C-terminal, kept
The experiment in a line: immunostaining of cells or tissue; transiently transfected COS7 cells fixed (3% paraformaldehyde) and permeabilized (0.1% Triton-X-100); mouse anti-ApoL1 antibodies at 2 µg/ml in PBS, 1 h, room temperature; Alexa488-anti-mouse; co-stained with anti-myc. The following applies: one partner purified.

In assay [5] the target is T5, ApoL2-NTD (N2-T113), His tag removed (human, UniProt Q9BQE5).
T5 construct: Apolipoprotein L2, human, N-terminal domain residues N2-T113, Genbank NP_112092.2; source: Sf9 insect cells (baculovirus), purified (Ni resin, S75, TEV digestion, S75)
The experiment in a line: crystal structure; Fab complexes formed with 1.5 molar excess of NTD and purified on Superdex-200 in 0.15 M NaCl, 25 mM Tris pH 8.0, about 10 mg/ml; Fab7D6 also crystallised with the synthetic peptide E152–H169. The following applies: both partners purified.

The target of assay [6] is T6, Bfl-1 (human, UniProt Q16548 1-175).
T6 construct: Bfl-1 (Bcl-2-related protein A1), human recombinant; also called Bcl-2-related protein A1; source: bought: R&D Systems
T6 sequence (looked up): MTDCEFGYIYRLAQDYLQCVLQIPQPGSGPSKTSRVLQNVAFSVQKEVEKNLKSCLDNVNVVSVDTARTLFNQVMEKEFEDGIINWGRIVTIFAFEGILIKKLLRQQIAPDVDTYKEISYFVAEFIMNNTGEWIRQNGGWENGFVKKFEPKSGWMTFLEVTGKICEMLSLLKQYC
Kind of assay: SPR; Biacore S200; Bcl-2 family proteins immobilised on CM5 (amine coupling or His-Capture Kit); peptides and flag-tagged proteins as analytes, single-cycle kinetics, HBS-EP, 25 °C; 1:1 Langmuir model; absence of binding probed at 100 nM and 3 µM. The following applies: both partners purified.

Assay [7] addresses T7, Bcl-w (human, UniProt Q92843 1-193).
T7 construct: Bcl-w, human recombinant; source: bought: R&D Systems
T7 sequence (looked up): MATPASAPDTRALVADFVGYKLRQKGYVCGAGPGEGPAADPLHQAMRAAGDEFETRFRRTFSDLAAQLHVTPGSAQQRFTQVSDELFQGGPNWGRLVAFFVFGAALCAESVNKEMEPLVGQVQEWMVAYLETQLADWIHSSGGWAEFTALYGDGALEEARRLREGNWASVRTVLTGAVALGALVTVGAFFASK
Described as above. As to conditions: both partners purified.

The target in assay [8] is T8, flag-tagged ApoL1-NTD (D61–T172) (human, UniProt O14791).
T8 construct: Apolipoprotein L1, human, N-terminal domain residues D61-T172; E150 variant; the tag is said to be removed only for X-ray studies; source: Sf9 insect cells (baculovirus), purified (anti-flag resin, S75 size exclusion)
The experiment in a line: SEC-MALS; XBridge BEH 200 Å column in PBS, 0.02% sodium azide, 1 ml/min; complex formed with a twofold molar excess of ApoL1-NTD (46.8 µM) over Fab7D6, 30 min at room temperature; components also run alone. As to conditions: both partners purified.

Assay [9] concerns the target T9, ApoL1-peptide (BH3-like peptide E152–H169) (human, UniProt O14791).
T9 construct: Apolipoprotein L1, human, residues E152-H169; also called ApoL1-BH3 peptide; BH3 peptide; source: synthetic peptide (NEO Scientific)
T9 chain: EDNIRRLRALADGVQKVH
Kind of assay: crystal structure; Fab complexes formed with 1.5 molar excess of NTD and purified on Superdex-200 in 0.15 M NaCl, 25 mM Tris pH 8.0, about 10 mg/ml; Fab7D6 also crystallised with the synthetic peptide E152–H169. The following applies: both partners purified.

T3 sequence (O14791 28-398): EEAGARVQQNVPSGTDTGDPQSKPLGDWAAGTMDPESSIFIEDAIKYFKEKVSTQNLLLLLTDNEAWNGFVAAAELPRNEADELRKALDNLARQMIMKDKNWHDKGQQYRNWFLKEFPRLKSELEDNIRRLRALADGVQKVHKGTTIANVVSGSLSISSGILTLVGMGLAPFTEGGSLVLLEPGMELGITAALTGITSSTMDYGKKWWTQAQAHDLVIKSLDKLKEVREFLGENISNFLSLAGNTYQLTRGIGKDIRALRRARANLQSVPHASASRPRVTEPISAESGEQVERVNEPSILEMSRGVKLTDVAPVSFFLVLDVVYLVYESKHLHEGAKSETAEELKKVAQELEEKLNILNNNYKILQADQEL
T1 sequence (Q9BQE5 whole entry): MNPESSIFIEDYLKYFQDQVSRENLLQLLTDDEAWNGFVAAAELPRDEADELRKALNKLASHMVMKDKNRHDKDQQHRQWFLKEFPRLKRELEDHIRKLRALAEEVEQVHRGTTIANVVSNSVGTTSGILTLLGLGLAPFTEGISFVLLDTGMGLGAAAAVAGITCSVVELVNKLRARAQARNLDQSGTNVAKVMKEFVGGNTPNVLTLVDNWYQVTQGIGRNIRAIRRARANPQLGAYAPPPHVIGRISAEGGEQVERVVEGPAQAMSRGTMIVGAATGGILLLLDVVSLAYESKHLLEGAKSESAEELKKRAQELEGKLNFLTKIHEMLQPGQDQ
T2 sequence (O95236 whole entry, canonical isoform): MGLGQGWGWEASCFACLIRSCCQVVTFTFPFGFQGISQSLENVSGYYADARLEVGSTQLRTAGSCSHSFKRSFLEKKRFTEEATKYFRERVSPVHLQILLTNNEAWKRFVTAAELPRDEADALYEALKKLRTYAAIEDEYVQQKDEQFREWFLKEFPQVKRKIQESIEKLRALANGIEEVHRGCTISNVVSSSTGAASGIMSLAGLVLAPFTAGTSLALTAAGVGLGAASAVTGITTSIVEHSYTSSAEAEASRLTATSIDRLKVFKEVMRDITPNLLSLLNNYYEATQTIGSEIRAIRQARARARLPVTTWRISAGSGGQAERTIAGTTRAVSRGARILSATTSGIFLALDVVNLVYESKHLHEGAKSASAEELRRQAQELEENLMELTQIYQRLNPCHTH
T5 sequence (Q9BQE5 other isoform, or with tags, fused parts or gaps): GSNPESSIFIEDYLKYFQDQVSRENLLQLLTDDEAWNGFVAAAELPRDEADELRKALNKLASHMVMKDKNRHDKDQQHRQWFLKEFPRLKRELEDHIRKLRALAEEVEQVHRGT
T4 sequence (Q9BPW4 22-351): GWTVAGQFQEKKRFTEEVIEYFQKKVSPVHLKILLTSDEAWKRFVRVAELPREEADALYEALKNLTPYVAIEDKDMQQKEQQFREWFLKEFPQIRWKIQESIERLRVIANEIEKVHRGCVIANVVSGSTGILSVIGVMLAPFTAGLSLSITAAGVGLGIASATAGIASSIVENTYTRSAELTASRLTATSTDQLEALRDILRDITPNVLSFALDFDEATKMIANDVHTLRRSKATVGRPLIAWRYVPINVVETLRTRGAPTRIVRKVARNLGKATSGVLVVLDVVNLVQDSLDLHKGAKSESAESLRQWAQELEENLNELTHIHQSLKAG
T8 sequence (O14791 61-172): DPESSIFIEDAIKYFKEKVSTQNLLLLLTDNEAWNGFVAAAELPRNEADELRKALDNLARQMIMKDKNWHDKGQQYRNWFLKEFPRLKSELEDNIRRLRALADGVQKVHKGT

B1: Ab3B6 (antibody, V domains shown)
VH: QVQLQQSGAELARPGASVKLSCKASGYTFTSHWMQWLKQRPGQGLEWIGAIYPGDGDTKFTQKFKDKATLTADKSSTTAYMQLSSLASEDSAVYYCARENLYGYYFDYWGQGTTLTVSS
VL: QAVVTQESALTTSPGETVTLTCRSSTGAVTSGNFANWVQEKPDHLFTGLIGGADNRAPGVPARFSGSLIGDKAALIITGAQTEDEAIYFCALWYSDHWVFGGGTKLTVL
notes: mouse VH, as the variable part of the heavy chain of m2; mouse heavy chain constant region; mouse VL, as the variable part of the light chain of m2; mouse light chain constant region; Mouse anti-human ApoL1 antibody; also called 3.3B6
As for B1, the binding result in assay [1] and in [2] was “binds” each time. Moreover, in assay [3], the Kd was determined as 1.56 nM.

B2: Ab6D12 (antibody, V domains shown)
VH: EVMLVESGGGLVRPGGSLKLSCTASGFTFSRCAMSWVRQTPEKRLEWVSAISRDSTYTYYSDSVKGRFTVSRDNAKNTLYLQMSSLRSEDTAMYYCARQIDDYYVDALDYWGQGTSVTVSS
VL: DVQITQSPSYLAASPGETITINCRASKIISKYLAWYQEKPGKTIKLLIYSGFTLQSGIPSRFSGSGSGTDFTLTISSLEPEDFAMYYCQQHNEYPLTFGAGTKLEIK
notes: mouse VH, as the variable part of the heavy chain of m1; mouse heavy chain constant region; mouse VL, as the variable part of the light chain of m1; mouse light chain constant region; Mouse anti-human ApoL1 antibody; also called 3.6D12; murine Ab6D12
As for B2, the binding result in [4], in assay [1] and in assay [2] was “binds” in each case. The molecule further displayed a Kd in [3] of 0.86 nM.

B3: Fab6D12 (Fab, V domains shown)
VH: B2 VH
VL: B2 VL
notes: Chimeric Fab: mouse variable domains on human constant domains; also called Fab of Ab6D12; 3.6D12 Fab; source: E. coli strain 64B4, secreted into the periplasm, purified (protein G, SP Sepharose, Superdex 75)
As to B3, in assay [5], the binding result is on record as “binds”.

B4: Bim (A149I) peptide (peptide)
peptide: DMRPEIWIIQELRRIGDEFNAYYAR
notes: also called Bim (A149A) (as printed in the methods); source: synthetic peptide (ABclonal, >95% purity)
Consider B4, for which the Kd was 18.8 nM in assay [6] and 23.1 nM in [7].

B5: Fab7D6 (Fab, V domains shown)
VH: QIQLVQSGPDLKKPGETVKISCRTSGYAFTNYGVNWVKQAPGKGLKWMGWINTNTGQTTYAEEFRGRFAISLETSASTAFLTISNLKNEDSATYFCARLIYDGDYISSDFWGQGTTLTVSS
VL: DIQMTQSPDSLSASVGETVTITCGASENIYGALNWYQRKQGKSPQLLIYGATNLADGMSSRFSGSRSGRQYSLKISSLHPDDVATYYCQNALSMPYTFGGGTNLETK
notes: Chimeric Fab: mouse variable domains on human constant domains; also called Fab of Ab7D6; 3.7D6 Fab; source: E. coli strain 64B4, secreted into the periplasm, purified (protein G, SP Sepharose, Superdex 75)
As for B5, the “stoichiometry N” value in [8] stood at 1. Moreover, the binding result in assay [9] is recorded as “binds”.

B6: Ab7D6 (antibody, V domains shown)
VH: B5 VH
VL: B5 VL
notes: mouse VH, as the variable part of the heavy chain of m3; mouse heavy chain constant region; mouse VL, as the variable part of the light chain of m3; mouse light chain constant region; Mouse anti-human ApoL1 antibody; also called 3.7D6
The molecule B6 came in with a Kd in assay [3] of 1.63 nM.

B7: Bid BH3 peptide (25-mer, residues 77-101) (peptide)
peptide: ESQEDIIRNIARHLAQVGDSMDRSI
notes: Bid, BH3-only motif, residues 77-101; source: synthetic peptide (ABclonal, >95% purity)
Regarding B7, the equilibrium dissociation constant (Kd) in assay [6] was found to be 0.31 nM; in assay [7] it was 24.2 nM.

B8: Bid (A87I) peptide (peptide)
peptide: ESQEDIIRNIIRHLAQVGDSMDRSI
notes: source: synthetic peptide (ABclonal, >95% purity)
For B8, the dissociation constant (Kd) in assay [6] was 1430 nM; in assay [7], 65.2 nM.
